According to publication PMC5922973, “Topoisomerase VI senses and exploits both DNA crossings and bends to facilitate strand passage” (eLife, 2018):

How the values were obtained:
[1] = target: T1, topo VI holoenzyme WT (Methanosarcina mazei) (UniProt Q8PUB7+Q8PUB8); experiment: competition (fluorescence anisotropy); conditions: vs FAM 70 bp; FA: 20 nM probe, 50 mM K-glutamate, 20 mM HEPES-KOH pH 7.5, 10 mM MgCl2, 5% glycerol, 1 mM TCEP, 0.1 mg/mL BSA; incubated on ice, read at ambient temperature …
T1 sequence 1: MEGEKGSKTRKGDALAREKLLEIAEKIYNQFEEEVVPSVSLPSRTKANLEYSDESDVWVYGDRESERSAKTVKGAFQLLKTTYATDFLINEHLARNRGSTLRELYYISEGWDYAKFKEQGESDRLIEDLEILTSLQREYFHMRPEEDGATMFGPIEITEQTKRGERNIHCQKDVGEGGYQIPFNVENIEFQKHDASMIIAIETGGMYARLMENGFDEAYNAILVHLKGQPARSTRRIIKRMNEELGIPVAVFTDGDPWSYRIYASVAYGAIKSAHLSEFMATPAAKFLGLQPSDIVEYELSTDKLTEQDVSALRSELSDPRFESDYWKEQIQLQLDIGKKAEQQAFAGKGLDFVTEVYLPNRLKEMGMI
T1 sequence 2: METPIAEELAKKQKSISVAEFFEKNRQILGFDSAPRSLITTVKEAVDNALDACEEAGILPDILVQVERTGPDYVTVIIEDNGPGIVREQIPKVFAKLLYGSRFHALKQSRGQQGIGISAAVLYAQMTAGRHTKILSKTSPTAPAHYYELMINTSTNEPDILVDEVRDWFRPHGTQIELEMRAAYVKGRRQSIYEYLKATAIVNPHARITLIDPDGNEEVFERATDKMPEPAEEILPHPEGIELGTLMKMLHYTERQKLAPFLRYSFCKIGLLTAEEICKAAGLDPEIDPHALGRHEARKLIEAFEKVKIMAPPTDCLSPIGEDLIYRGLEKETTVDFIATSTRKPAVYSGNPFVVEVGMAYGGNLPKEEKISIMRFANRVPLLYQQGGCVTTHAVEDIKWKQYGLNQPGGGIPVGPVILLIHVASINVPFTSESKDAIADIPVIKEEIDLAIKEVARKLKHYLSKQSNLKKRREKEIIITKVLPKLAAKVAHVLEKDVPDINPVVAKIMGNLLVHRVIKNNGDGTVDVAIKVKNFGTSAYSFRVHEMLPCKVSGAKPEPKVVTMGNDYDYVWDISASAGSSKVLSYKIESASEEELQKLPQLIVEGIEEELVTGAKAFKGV

[2] = target: T2, topo VI H2TH-EEE R263E;K268E;K308E (Methanosarcina mazei) (UniProt Q8PUB7+Q8PUB8); experiment: competition (fluorescence anisotropy); conditions: vs FAM 70 bp; FA: 20 nM probe, 50 mM K-glutamate, 20 mM HEPES-KOH pH 7.5, 10 mM MgCl2, 5% glycerol, 1 mM TCEP, 0.1 mg/mL BSA; incubated on ice, read at ambient temperature …
T2 sequence 1: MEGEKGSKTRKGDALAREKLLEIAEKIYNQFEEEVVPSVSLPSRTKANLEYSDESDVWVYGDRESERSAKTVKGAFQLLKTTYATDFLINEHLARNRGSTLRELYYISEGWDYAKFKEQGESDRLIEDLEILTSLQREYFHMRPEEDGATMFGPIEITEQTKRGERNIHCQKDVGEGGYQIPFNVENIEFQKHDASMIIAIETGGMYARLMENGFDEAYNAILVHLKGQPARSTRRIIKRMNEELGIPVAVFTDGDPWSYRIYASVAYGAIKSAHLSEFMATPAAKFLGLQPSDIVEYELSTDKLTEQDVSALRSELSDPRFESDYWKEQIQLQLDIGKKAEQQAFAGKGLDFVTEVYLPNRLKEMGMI
T2 sequence 2: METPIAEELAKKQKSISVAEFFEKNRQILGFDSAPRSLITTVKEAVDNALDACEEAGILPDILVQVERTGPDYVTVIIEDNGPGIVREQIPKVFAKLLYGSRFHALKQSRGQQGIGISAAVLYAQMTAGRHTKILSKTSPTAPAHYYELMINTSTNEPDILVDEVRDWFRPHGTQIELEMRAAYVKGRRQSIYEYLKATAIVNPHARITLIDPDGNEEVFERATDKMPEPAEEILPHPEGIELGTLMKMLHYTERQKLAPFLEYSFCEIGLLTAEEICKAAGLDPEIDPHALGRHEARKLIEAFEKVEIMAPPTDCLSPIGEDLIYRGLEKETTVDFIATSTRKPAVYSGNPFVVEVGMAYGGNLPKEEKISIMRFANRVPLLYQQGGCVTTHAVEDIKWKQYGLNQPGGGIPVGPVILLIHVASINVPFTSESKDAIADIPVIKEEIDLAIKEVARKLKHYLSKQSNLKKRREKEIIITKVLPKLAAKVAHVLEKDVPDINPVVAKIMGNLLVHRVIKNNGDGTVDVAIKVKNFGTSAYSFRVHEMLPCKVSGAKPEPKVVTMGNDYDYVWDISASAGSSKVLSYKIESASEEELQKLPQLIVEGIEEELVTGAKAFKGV

[3] = target: T3, topo VI KGRR-AAA K186A;R188A;R189A (Methanosarcina mazei) (UniProt Q8PUB7+Q8PUB8); experiment: competition (fluorescence anisotropy); conditions: vs FAM 70 bp; FA: 20 nM probe, 50 mM K-glutamate, 20 mM HEPES-KOH pH 7.5, 10 mM MgCl2, 5% glycerol, 1 mM TCEP, 0.1 mg/mL BSA; incubated on ice, read at ambient temperature …
T3 sequence 1: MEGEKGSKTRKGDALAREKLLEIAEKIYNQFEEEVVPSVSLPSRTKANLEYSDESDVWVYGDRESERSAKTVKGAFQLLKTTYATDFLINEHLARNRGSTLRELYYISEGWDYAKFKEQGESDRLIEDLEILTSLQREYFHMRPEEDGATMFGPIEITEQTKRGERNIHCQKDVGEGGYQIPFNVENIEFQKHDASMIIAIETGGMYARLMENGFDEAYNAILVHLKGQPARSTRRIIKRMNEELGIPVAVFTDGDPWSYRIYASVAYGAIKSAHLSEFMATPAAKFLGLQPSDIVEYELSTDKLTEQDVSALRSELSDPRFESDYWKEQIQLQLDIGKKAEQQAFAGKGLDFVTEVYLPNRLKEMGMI
T3 sequence 2: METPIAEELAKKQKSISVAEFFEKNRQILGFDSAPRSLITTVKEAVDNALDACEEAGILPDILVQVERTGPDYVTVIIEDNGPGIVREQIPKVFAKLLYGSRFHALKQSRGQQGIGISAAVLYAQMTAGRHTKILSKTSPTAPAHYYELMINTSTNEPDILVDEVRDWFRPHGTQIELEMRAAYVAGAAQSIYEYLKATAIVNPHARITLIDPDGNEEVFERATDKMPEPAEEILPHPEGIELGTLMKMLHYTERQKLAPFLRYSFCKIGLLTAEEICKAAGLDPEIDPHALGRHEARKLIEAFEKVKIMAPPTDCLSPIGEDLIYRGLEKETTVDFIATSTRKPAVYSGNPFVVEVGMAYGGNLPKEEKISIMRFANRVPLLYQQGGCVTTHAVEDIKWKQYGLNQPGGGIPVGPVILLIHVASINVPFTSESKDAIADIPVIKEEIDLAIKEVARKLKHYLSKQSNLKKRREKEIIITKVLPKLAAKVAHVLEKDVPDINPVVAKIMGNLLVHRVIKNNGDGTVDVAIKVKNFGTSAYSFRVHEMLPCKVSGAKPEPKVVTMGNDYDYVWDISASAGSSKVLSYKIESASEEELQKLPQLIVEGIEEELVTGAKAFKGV

[4] = target: T4, topo VI KGRR-EEE K186E;R188E;R189E (Methanosarcina mazei) (UniProt Q8PUB7+Q8PUB8); experiment: competition (fluorescence anisotropy); conditions: vs FAM 70 bp; FA: 20 nM probe, 50 mM K-glutamate, 20 mM HEPES-KOH pH 7.5, 10 mM MgCl2, 5% glycerol, 1 mM TCEP, 0.1 mg/mL BSA; incubated on ice, read at ambient temperature …
T4 sequence 1: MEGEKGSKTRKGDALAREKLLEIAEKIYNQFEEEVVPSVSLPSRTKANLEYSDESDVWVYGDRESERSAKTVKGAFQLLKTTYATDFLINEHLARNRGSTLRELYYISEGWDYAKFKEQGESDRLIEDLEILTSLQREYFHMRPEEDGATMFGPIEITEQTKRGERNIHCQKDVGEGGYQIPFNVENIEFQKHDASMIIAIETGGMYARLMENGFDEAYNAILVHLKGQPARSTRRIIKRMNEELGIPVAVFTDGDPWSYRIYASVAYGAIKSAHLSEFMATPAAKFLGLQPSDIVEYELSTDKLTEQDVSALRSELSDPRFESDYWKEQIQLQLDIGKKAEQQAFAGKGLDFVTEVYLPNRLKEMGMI
T4 sequence 2: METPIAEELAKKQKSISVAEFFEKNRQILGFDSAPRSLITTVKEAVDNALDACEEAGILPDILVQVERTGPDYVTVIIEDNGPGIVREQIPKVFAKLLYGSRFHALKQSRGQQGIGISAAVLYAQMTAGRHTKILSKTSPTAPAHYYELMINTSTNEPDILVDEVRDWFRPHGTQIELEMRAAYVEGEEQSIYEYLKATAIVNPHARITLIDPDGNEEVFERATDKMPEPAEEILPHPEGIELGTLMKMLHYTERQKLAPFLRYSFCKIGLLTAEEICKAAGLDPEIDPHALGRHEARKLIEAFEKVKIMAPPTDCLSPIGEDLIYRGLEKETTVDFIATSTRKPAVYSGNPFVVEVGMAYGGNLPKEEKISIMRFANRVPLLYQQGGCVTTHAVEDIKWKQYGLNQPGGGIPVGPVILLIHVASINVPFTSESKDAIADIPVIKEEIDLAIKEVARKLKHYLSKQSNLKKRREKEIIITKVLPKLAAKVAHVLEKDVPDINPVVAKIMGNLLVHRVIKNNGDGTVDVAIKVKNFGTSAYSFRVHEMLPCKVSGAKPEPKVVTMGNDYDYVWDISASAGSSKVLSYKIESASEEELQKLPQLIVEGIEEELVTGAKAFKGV

[5] = target: T5, topo VI H2TH-AAA R263A;K268A;K308A (Methanosarcina mazei) (UniProt Q8PUB7+Q8PUB8); experiment: competition (fluorescence anisotropy); conditions: vs FAM 70 bp; FA: 20 nM probe, 50 mM K-glutamate, 20 mM HEPES-KOH pH 7.5, 10 mM MgCl2, 5% glycerol, 1 mM TCEP, 0.1 mg/mL BSA; incubated on ice, read at ambient temperature …
T5 sequence 1: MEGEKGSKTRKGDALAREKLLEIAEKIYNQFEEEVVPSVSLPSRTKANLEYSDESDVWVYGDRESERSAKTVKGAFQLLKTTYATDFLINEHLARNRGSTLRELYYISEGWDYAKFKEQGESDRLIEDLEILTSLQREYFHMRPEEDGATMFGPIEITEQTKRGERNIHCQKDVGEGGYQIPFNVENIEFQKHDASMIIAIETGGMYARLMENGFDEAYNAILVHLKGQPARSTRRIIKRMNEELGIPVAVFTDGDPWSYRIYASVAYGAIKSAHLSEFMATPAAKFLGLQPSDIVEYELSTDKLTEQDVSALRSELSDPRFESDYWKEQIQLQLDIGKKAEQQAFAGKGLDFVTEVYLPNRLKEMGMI
T5 sequence 2: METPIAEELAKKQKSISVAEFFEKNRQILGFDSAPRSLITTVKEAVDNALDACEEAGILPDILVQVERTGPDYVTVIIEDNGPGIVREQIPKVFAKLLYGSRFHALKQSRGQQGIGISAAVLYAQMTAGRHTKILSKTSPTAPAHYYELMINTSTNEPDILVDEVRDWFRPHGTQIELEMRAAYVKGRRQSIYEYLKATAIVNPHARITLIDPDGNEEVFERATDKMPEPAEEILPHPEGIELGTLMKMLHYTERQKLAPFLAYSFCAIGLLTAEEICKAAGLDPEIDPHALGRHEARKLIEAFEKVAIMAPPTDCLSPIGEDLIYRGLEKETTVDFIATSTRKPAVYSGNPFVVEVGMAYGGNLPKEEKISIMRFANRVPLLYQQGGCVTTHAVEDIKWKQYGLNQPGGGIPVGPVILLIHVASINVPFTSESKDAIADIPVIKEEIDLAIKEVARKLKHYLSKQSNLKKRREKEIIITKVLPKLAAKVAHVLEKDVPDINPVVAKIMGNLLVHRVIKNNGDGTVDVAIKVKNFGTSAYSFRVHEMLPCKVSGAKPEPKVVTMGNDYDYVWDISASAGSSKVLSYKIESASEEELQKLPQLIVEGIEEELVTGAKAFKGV

[6] = target: T1, topo VI holoenzyme WT (Methanosarcina mazei); experiment: fluorescence anisotropy; conditions: FA: 20 nM probe, 50 mM K-glutamate, 20 mM HEPES-KOH pH 7.5, 10 mM MgCl2, 5% glycerol, 1 mM TCEP, 0.1 mg/mL BSA; incubated on ice, read at ambient temperature …

Row | Substance | Ki [1] [nM] | Ki [2] [nM] | Ki [3] [nM] | Ki [4] [nM] | Ki [5] [nM] | binding signal (fold Kd of 60 bp duplex) [6]
1 | pSG483 negatively supercoiled plasmid | 0.6 | 10 | 7.2 | 14.7 | 1.3 | 
2 | 80 bp duplex |  |  |  |  |  | 2
